Starred links: 1 amine or outer side, 2 acyl side, 3 side chain; linkers in the order of their positions; H or OH if unused. Non-standard residues stand in square brackets, D forms with d. Groups on a side chain read outwards from the residue. Primed or numbered codes have the meaning given here. No end group written: not given here. *: point of attachment. γGlu = O=C(O)[C@H](CCC(=O)[*:2])N[*:1]; αMeF = C[C@](N)(Cc1ccccc1)C(=O)O; αMeK = C[C@](N)(CCCCN)C(=O)O; Lauroyl = CCCCCCCCCCCC(=O)*; αMeS = C[C@](N)(CO)C(=O)O; PEG2′ = not defined here; Aib = CC(C)(N)C(=O)O
T1: glucose-dependent insulinotropic peptide (gastric inhibitory polypeptide) receptor (GIPR), primary cAMP assay … (human, UniProt P48546 22-466)
T1 sequence (looked up): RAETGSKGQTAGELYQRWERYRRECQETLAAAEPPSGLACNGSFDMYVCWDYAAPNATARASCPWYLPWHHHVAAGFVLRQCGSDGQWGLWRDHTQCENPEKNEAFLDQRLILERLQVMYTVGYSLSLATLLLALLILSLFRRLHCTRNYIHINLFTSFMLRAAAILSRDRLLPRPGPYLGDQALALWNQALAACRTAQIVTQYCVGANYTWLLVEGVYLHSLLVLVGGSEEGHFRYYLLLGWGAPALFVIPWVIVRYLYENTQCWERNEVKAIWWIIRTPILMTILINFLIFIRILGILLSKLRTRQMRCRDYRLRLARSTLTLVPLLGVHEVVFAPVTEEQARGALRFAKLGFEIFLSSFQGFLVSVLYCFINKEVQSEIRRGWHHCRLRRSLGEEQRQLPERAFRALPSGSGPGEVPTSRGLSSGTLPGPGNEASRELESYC

T2: GLP-1R in the INS1e assay (UniProt P32301 22-463, limits assumed)
T2 sequence (looked up): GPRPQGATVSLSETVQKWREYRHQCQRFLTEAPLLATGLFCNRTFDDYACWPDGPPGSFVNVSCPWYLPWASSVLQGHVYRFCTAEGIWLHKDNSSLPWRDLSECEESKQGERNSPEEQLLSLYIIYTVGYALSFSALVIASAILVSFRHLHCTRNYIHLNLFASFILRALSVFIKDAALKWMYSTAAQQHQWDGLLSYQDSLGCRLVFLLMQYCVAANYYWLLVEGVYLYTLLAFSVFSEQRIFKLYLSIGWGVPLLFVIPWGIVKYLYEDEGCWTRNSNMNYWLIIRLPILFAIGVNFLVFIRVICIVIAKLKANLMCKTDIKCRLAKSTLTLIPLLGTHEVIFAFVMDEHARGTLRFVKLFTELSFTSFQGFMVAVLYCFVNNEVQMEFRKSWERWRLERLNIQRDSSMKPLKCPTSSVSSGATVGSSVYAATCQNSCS


Legend:
Assay in all cases: cell-based or functional assay
[1] = target: glucagon receptor (GCGR), primary cAMP assay cell line (human, UniProt P47871 26-477)
[2] = target: GLP-1 receptor (GLP-1R), primary cAMP assay cell line (human, UniProt P43220 24-463)
[3] = target: T1, glucose-dependent insulinotropic …
[4] = target: T2, GLP-1R in the INS1e assay

Chain of glucagon receptor (GCGR), primary cAMP assay cell line (P47871 26-477): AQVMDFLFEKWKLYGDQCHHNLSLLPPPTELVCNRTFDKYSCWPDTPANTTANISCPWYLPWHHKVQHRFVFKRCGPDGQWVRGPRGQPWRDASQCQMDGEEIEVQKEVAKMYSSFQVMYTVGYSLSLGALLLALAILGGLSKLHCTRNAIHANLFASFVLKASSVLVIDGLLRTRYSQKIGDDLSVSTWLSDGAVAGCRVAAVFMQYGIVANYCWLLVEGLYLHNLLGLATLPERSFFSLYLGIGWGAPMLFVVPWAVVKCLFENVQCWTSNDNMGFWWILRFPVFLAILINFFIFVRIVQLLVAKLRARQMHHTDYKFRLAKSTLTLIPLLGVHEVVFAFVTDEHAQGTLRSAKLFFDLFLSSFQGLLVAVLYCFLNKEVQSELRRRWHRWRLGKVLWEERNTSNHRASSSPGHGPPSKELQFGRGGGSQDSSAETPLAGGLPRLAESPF

Row | cAMP Primary assay EC50, n1 [1] | cAMP Primary assay EC50, n2 [1] | cAMP Primary assay EC50, Mean pM GLP-1R [2] | cAMP Primary assay EC50, n1 [2] | cAMP Primary assay EC50, n2 [2] | cAMP Primary assay EC50, n1 [3] | cAMP Primary assay EC50, n2 [3] | cAMP INS1e assay EC50, Mean pM GLP-1R [4] | cAMP INS1e assay EC50, n1 [4] | cAMP INS1e assay EC50, n2 [4] | Binder
1 | 20 nM | 20 nM | 36.3 pM | 0.0283 nM | 0.0442 nM | 20 nM | 20 nM | 5860 pM | 8.57 nM | 3.15 nM | H[Aib]EGS[αMeF]TSDV[αMeS]SK([PEG2′-PEG2′-γGlu-Lauroyl])LEGEAA[αMeK]K([PEG2′-PEG2′-γGlu-Lauroyl])FIAFK([PEG2′-PEG2′-γGlu-Lauroyl])VEGG-NH2 [SEQ ID NO: 482]
2 | 20 nM | 20 nM | 57.5 pM | 0.056 nM | 0.0589 nM | 20 nM | 20 nM | 6530 pM | 9.37 nM | 3.69 nM | H[Aib]EGS[αMeF]TSDV[αMeS]SK([PEG2′-PEG2′-γGlu-Lauroyl])LEGK([PEG2′-PEG2′-γGlu-Lauroyl])AA[αMeK]EFIAFK([PEG2′-PEG2′-γGlu-Lauroyl])VEGG-NH2 [SEQ ID NO: 480]
3 | 20 nM | 20 nM | 31.3 pM | 0.026 nM | 0.0365 nM | 20 nM | 20 nM | 3660 pM | 3.84 nM | 3.48 nM | H[Aib]EGS[αMeF]TSDV[αMeS]SYK([PEG2′-PEG2′-γGlu-Lauroyl])EGEAA[αMeK]K([PEG2′-PEG2′-γGlu-Lauroyl])FIAK([PEG2′-PEG2′-γGlu-Lauroyl])VVEGG-NH2 [SEQ ID NO: 470]
